# Paper PMC11662680
# Substitutions are numbered along the chain they refer to. Read-outs that look alike come from different tables or passages of the source.
# T1: Ec CapW S158E (Escherichia coli upec-117, UniProt P0DX76 1-299, S158E)
# T1 sequence: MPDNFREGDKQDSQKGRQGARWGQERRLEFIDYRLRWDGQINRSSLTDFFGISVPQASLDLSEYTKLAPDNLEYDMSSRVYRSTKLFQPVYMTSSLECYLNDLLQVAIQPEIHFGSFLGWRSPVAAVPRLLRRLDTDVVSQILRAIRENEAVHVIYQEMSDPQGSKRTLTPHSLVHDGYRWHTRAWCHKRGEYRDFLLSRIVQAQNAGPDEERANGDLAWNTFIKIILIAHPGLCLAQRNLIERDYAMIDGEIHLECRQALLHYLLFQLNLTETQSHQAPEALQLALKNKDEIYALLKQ
# T2: Ec CapW R200A (Escherichia coli upec-117, UniProt P0DX76 1-299, R200A)
# T2 sequence: T1 sequence with E158S, R200A
# T3: Rl CapW WT (Rhizobium leguminosarum, UniProt PDB:9C5G_1 1-299)
# T3 sequence: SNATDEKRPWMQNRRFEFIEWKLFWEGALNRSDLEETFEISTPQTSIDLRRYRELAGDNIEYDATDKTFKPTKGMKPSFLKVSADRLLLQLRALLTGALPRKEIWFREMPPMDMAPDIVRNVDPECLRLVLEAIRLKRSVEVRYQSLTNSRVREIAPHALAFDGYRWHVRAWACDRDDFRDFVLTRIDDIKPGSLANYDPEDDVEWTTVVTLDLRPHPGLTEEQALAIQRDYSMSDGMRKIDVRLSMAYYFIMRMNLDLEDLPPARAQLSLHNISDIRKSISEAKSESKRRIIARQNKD
# T4: Ec CapW WT (Escherichia coli upec-117, UniProt P0DX76 1-299)
# T4 sequence: T1 sequence with E158S
# B1: CapW 30 bp palindromic binding site (dsDNA)
# DNA 1: TAAAAACTGATCGTATAATAATGCTACGCT
# DNA 2: AGCGTAGCATTATTATACGATCAGTTTTTA
# B2: 7mer poly-T, unlabeled (ssDNA)
# DNA: TTTTTTT
# B3: 7mer poly-A (ssDNA)
# DNA: AAAAAAA
# B4: 7mer poly-U RNA (ssRNA)
# RNA: UUUUUUU
# B5: 7mer poly-T, FAM (ssDNA)
# DNA: TTTTTTT
# Columns and labels:
# [1] = biological target: CapW from Rhizobium leguminosarum (Rhizobium leguminosarum); test: crystal structure
# [2] = biological target: T1, Ec CapW S158E; test: fluorescence polarization
# [3] = biological target: T2, Ec CapW R200A; test: fluorescence polarization
# [4] = biological target: T3, Rl CapW WT; test: X-ray crystallography
# [5] = biological target: T4, Ec CapW WT; test: fluorescence polarization
# [6] = biological target: T1, Ec CapW S158E; test: fluorescence polarization; remark: listed apart in the source
# [7] = biological target: T2, Ec CapW R200A; test: fluorescence polarization; remark: listed apart in the source
molecule,measurement,setting,value
CapW from Rhizobium leguminosarum (natural protein),stoichiometry N,[1],2
B1,binding result,[2],binds
same,binding result,[3],binds
B2,binding result,[4],binds
B3,binding result,[5],no binding
B4,binding result,[5],no binding
B5,binding result,[6],no binding
same,binding result,[7],no binding
